This experiment concerns the target neuraminidase (NA) from A/Brisbane/02/2018 (H1N1), wild type (influenza A virus A/Brisbane/02/2018 (H1N1)). Kind of experiment: non-reducing SDS-PAGE.

What is called stoichiometry N is the number of molecules, sites or subunits per partner or assembly. On to “neuraminidase (NA) from A/Brisbane/02/2018 (H1N1), wild type (natural protein)”, for which the stoichiometry N was 2.

(Values after PMC12456132.)
